Values joined by “and” are separate entries in the source; they are usually repeats but may differ in a detail not shown here. Equal values may be shown once. One block for each compound: values may come before it.
What was measured:
SR-BI = assay: SR-BI-mediated cholesterol uptake in Fu5AH hepatoma cells; type: cell-based, rat; details: 2 h pretreatment of Fu5AH cells; uptake from CS-6253 or apo A-I nHDL
Experimental: J774 cells were labeled for 24h with ^3[H]-cholesterol (Perkin Elmer, Norwalk, Connecticut) in medium containing 1% FBS. Unlabeled rat Fu5AH hepatoma cells that express high levels of SR-BI, were prepared as described previously. Fu5AH were first seeded on 24-well plate at a density of 2x10^5 cells/well in DMEM plus 10% FBS. SR-BI mediated cholesterol uptake is determined as previously reported. The nHDL particles were generated in media cell culture after 6h incubation of cAMP stimulated J774 cells with increased molar concentrations relative to native apo A-I of lipid free CS-6253 (0, 0.018, 0.071, 0.179, 0.357, 0.536, 0.714, and 1.071 μM). […] The total of ^3H-label present in the lipid extract from cells (% cpm) was quantified by liquid scintillation, and plotted as cell-associated radioactivity as described by Yancey et al.. The contribution of SR-BI to the influx of HDL cholesterol (HDL-C) was assessed by a 2h pretreatment of Fu5AH cells with blocker of lipid transport-1 (BLT-1) to inhibit any transport of cholesterol from HDL to the cells via SR-BI [31]. […]
Fig 10 Uptake of cholesterol to hepatic cells expressing SR-BI from plasma containing HDL-CS-6253 or HDL-apo A-I. A. Fu5AH liver hepatoma cells expression of SR-BI transporter ability. […] Protein concentration was determined by standard assay (Bio-Rad). […]

LCAT = LCAT activity (fractional esterification rate) in human plasma; type: biochemical; details: 2 mM DTNB, 1 h, 37°C
Experimental: Supplementary file pone.0131997.s011.tif: S10 Fig Dynamics of esterification of nascent […]-6253 particles were labelled with cell derived ^3[H]cholesterol and incubated with a normolipidemic plasma at a ratio of (1μg peptide: 10μg plasma apo A-I). LCAT activity was determined after incubation for 1h at 37°C in the presence or absence of 2 mM DTNB. After lipid extraction, ^3[H]cholesterol (unesterified) and ^3[H]CE from plasma were separated by TLC and assayed for radioactivity as described in the online-only Supplementary appendix, S1 Appendix. LCAT activity was measured as CE divided by cholesterol/h. Results are mean (±SD) of triplicate experiments. *P<0.05. (TIF) Click here for additional data file. The fractional cholesterol esterification rate (FER) of LCAT activity was assayed with standard methodology (1,2). […] Cholesterol labeled nHDL particles, Lp-CS-6253 or […] plasma apo A-I), are incubated in total plasma pooled from healthy control subjects for 1h at 37 °C (3). This ratio is selected based on the assumption that the in vivo nascent HDL pool represented ∼10% of total plasma apoA-I mass (4). […] Cellular lipids were extracted and ^3[H]cholesterol and ^3[H]cholesteryl esters (CE) were separated by TLC. The lipids ^3[H]free cholesterol and ^3[H]CE were located by exposure to iodine vapor, and were scraped into liquid scintillating vials and assayed for radioactivity. […]

[1] = target: ABCA1 (human, expressed in BHK cells) (human) (UniProt O95477); assay: cross-linking; intact mifepristone-stimulated BHK-ABCA1 cells in the presence of apo A-I or CS-6253 (0.96 μM), cross-linked or not with 500 μM DSP; lysis with 0.5% n-dodecylmaltoside; SDS-PAGE (4–22.5%), anti-ABCA1 blot; no DTT
[2] = tested on: HDL subpopulations in human plasma; assay: HDL subpopulation remodelling (preβ-1 HDL formation) in human plasma, 2D-PAGGE; details: 10 μg lipid free apoA-I: 1 μg plasma apoA-I, 37°C
Experimental: Apo A-I and CS-6253-containing particles were separated according to charge (agarose, horizontal axis) and size (polyacrylamide gradient, 3% to 20% gel, vertical axis) as previously described. Apo A-I-containing particles were detected by incubating the membranes with immunopurified polyclonal anti-apo A-I antibody (Biodesign). The nHDL-CS-6253 containing particles were detected with immunopurified polyclonal anti-CS-6253 antibody (Biosynthesis Inc., Lewisville, TX). The anti-CS-6253 is a purified rabbit IgG polyclonal antibody specifically produced by Biosynthesis Inc. It is. Cross reactivity of this antibody was verified by Nondenaturing gradient gel electrophoresis (ND-PAGGE) 5% to 35% [24]. The anti-CS-6253 antibody recognizes only CS-6253 peptide in plasma; neither apo A-I nor apo E were detected by this antibody after separation by gradient gel electrophoresis respectively (Fig 1A, 1B and 1C). […]
Fig 8 Time dependent effects of incubation of lipid free CS-6253 with human plasma, on HDL subparticles. […] HDL subpopulations were detected by an anti-apo A-I antibody. […] HDL subfractions were detected by an antibody against CS-6253. […]
Fig 9 Time dependent effects of incubation of lipid free CS-6253 with human plasma, on HDL subparticles. […] Samples were separated by 2D-PAGGE, and ^125I-apoA-I was detected by autoradiography. […]

ABCA1 = ABCA1 (Homo sapiens, UniProt O95477); assay: ABCA1-mediated cholesterol efflux from BHK-ABCA1 cells, acceptor in media; type: cell-based; design: expressed in transfected cells; host or cells: BHK cells, stably transfected, induced with 10 nM mifepristone (gift of J. F. Oram); details: BHK-ABCA1 induced with mifepristone, 4 h, 37°C, mean ± SD
Source text: BHK cells stably transfected with an ABCA1 or ABCG1 expression vector that is mifepristone inducible and cells transfected with the same vector lacking the ABCA1 cDNA insert (mutant or mock-transfected) were generously provided by the late Dr. John F. Oram from the Department of Medicine, University of Washington, and were characterized and cultured as previously described. […] Mouse-derived peritoneal macrophages J774 were purchased from American Tissue Culture Collection (ATCC TIB-67, Cederlane, Burlington, Canada). For induction of ABCA1, BHK cells were incubated for 18–20 h with 10 nM mifepristone. J774 macrophages were stimulated with 0.3 mM Cpt-cAMP 8-(4-Chlorophenylthio)-cyclic adenosine monophosphate (Sigma). All BHK and J774 macrophages cells were respectively grown and maintained in DMEM and RPMI containing 10% fetal serum until experimental treatment. Studies were carried out on standard 24-well plates (150,000 cells/well) unless stated otherwise
We investigated cholesterol efflux from BHK cells after adding lipid free CS-6253 to media cell culture or to human EDTA-plasma which had been stored at -80°C. BHK overexpressing human ABCA1 were labeled with 2 μCi/ml ^3H-free cholesterol (Perkin Elmer, Norwalk, Connecticut) for 24 h. Afterward, BHK-ABCA1 were stimulated with 10 nmol/l mifepristone for 18–20 h (13). Cells were incubated with various doses of acceptor in media for 4 h at 37°C. Alternatively, plasma samples were first pre-incubated for 5 min at 37°C in plasma at mole ratios (10:1 or 1:1 relative to plasma apo A-I). To obtain the HDL fraction, apoB lipoproteins were precipitated from plasma by polyethylene glycol (PEG). […]
Fig 2 Effect of CS-6253 treatment on cholesterol efflux. […] Cholesterol efflux from either ABCA1 cells or control cells to apo A-I (closed circles), and CS-6253 (closed triangles) was determined at the indicated time points. […] ABCA1 was detected from THP-1 foam cells lysis at 4°C with lysis buffer containing 0.5% n-dodecylmaltoside in the presence of a protease inhibitor mixture followed by low speed centrifugation to remove cell debris. Protein concentration was determined by standard assay (Bio-Rad). […] After electrophoresis, ABCA1 was detected by an anti-ABCA1 antibody. […] E. Quantification of FC and CE in foam cells after interaction with CS-6253 and apoA-I. After a period of 4h cholesterol efflux, THP-1 foam cell lipids were extracted with hexane: isopropanol (3v/2v) as under ‘‘Material and Methods’. 3[H]-FC and 3[H]-CE were separated by TLC and located by exposure to iodine vapor, and were scraped off into liquid scintillating vials and assayed for radioactivity. […]

Chain of ABCA1 (O95477 whole entry): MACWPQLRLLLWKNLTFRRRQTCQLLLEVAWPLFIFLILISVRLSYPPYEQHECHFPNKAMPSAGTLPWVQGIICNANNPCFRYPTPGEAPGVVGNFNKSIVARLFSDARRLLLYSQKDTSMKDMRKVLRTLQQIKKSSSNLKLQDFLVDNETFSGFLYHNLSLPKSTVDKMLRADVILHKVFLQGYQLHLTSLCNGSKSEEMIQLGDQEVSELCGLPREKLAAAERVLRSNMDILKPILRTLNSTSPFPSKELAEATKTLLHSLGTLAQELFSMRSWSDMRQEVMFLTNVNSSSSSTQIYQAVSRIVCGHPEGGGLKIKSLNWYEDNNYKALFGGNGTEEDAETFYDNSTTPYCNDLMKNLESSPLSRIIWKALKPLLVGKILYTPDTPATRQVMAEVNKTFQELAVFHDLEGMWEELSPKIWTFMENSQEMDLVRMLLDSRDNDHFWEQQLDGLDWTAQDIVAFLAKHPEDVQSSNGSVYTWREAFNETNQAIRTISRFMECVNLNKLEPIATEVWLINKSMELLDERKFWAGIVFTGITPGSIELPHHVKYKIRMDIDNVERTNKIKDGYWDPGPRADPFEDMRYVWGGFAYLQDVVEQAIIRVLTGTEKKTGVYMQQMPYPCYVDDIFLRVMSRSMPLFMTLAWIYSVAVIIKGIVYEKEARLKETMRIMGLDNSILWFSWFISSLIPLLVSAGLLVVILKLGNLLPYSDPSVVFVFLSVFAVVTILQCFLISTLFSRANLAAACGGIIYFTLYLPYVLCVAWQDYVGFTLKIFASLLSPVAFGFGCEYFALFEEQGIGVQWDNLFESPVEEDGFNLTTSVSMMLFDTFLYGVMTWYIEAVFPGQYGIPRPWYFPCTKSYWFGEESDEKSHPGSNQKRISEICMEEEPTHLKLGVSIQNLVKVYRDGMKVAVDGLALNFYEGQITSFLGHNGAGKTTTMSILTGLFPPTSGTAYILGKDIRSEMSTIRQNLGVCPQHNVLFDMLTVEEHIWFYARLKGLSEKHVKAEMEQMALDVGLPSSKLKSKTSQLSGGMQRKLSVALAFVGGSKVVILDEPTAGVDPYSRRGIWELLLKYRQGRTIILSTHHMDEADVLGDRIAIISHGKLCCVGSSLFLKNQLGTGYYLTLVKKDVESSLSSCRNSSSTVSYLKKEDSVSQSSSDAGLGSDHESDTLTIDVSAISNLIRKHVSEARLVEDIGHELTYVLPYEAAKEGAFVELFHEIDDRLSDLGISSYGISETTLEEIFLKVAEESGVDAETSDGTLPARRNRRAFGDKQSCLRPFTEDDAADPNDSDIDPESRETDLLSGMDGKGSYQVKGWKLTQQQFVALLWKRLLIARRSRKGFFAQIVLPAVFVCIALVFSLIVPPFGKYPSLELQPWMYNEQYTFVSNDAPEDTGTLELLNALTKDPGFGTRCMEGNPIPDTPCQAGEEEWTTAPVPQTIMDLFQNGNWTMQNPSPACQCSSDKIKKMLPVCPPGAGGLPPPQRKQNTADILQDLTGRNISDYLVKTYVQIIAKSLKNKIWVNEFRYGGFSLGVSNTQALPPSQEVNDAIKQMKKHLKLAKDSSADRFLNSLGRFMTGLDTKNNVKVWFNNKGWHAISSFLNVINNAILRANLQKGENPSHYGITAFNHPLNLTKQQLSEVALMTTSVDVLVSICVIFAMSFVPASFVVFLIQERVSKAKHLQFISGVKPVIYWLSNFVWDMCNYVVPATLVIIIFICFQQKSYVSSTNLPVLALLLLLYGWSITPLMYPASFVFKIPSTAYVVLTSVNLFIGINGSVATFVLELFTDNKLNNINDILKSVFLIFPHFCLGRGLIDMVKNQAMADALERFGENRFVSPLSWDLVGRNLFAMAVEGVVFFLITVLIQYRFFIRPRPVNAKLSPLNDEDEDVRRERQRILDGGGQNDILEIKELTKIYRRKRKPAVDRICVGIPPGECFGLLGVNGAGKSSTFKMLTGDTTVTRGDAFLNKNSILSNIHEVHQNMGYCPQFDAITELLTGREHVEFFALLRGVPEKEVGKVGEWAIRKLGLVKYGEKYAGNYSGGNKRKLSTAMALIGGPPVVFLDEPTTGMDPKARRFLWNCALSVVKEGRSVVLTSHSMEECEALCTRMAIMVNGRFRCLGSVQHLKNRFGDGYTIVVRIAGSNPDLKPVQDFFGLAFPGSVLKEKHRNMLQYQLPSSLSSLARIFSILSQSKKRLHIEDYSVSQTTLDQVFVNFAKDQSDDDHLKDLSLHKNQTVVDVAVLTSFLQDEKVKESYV

Compound: CCCCCCC1CCCC1=NNC(N)=S (stereo not drawn) [BLT-1]
effect on cholesterol uptake (in words) (SR-BI): inhibited uptake of cholesterol from CS-6253 or apo A-I nHDL

Compound: O=C(O)c1cc(SSc2ccc([N+](=O)[O-])c(C(=O)O)c2)ccc1[N+](=O)[O-] [DTNB, 5,5′-Dithiobis(2-nitrobenzoic acid)]
inhibition of LCAT (LCAT): 98.37 ± 0.08%

ratio of ABCA1 dimer: monomer (cells with CS-6253) [1]: 56.5%
ratio of ABCA1 dimer: monomer (cells with apo A-I) [1]: 69.2%
stoichiometry N [1]: 2
Compound: ABCA1 (human, expressed in BHK cells), O95477 1-2261

Compound: ^125I-lipid free apoA-I: apo A-I iodinated with 125I by Iodo-Gen
increase in preβ-1 particles, 5 min (125I-apoA-I control) ([2]; 5 min): 0.23 fold
increase in preβ-1 particles, 2 h (125I-apoA-I control) ([2]; 2 h): 0.4 fold

Compound: apolipoprotein E [apo E]
Km, cholesterol efflux (ABCA1): 10.30±2.84 μg/ml and 0.21±0.05 μM
Vmax, cholesterol efflux (ABCA1): 11.45±1.16 % efflux/4h
